Laboratory results reported in paper PMC9594044.

Target: PtTamH (Pseudoalteromonas tunicata)
Test: SEC; size exclusion chromatography of purified recombinant PtTamH after IMAC; retention volume corresponds to >200 kDa

stoichiometry N: 2
Substance: PtTamH (enzyme)
